According to patent US20250011410A1 (INVETX, published 2025):
Changes are numbered by the printed parent chain. In names and notes the source's numbering stands. Several values for one entry are separate records, joined by “and”; a condition that tells them apart may be missing. Identical values can stand only once.

B1: felinized clone 101 Fab-SASA (wild-type) (Fab, V domains shown, not shown: small tags and cut ends)
VH: DVQLVESGGDLVKPGGSLRLTCVASGLSLTSSSMSWVRQAPGKGLQWVSTIYSNGGTYYTDSVKGRFTISKDNAENTLYLQMNNLKTEDTATYYCASIYYYDADYLHWYFDFWGQGALVTVSS
VL: EIQMTQSPTSLSASVGDRVTITCRASEGISNNLSWYQQTPGKAPKLLIYATSNLHSGVPSRFSGSGSGTDFTLTISSLQPEDFATYYCQQGYKWPLTFGGGTKLEITR
B2: felinized clone 101 Fab-SASA variant T60H (VH) (Fab, V domains shown, not shown: small tags and cut ends)
VH: B1 VH with T60H
VL: B1 VL
B3: felinized clone 101 Fab-SASA variant Y58D (VH) (Fab, V domains shown, not shown: small tags and cut ends)
VH: B1 VH with Y58D
VL: B1 VL
B4: felinized clone 101 Fab-SASA variant Y99F (VH) (Fab, V domains shown, not shown: small tags and cut ends)
VH: B1 VH with Y99F
VL: B1 VL
B5: felinized clone 101 Fab-SASA variant T60S (VH) (Fab, V domains shown, not shown: small tags and cut ends)
VH: B1 VH with T60S
VL: B1 VL
B6: felinized clone 101 Fab-SASA variant T60E (VH) (Fab, V domains shown, not shown: small tags and cut ends)
VH: B1 VH with T60E
VL: B1 VL
B7: felinized clone 101 Fab-SASA variant Y52W (VH) (Fab, V domains shown, not shown: small tags and cut ends)
VH: B1 VH with Y52W
VL: B1 VL
B8: felinized clone 101 Fab-SASA variant Y101H (VH) (Fab, V domains shown, not shown: small tags and cut ends)
VH: B1 VH with Y101H
VL: B1 VL
B9: AHF17606 (Fab, V domains shown, not shown: small tags and cut ends)
VH: B1 VH with S35V, G55R
VL: B1 VL with S30A
B10: AHF17593 (Fab, V domains shown, not shown: small tags and cut ends)
VH: B1 VH with S35V, G55R, S97Q
VL: B1 VL with S30A, N53V
notes: Fab-SASA, combinatorial library
B11: AHF17602 (Fab-SASA) (Fab, V domains shown, not shown: small tags and cut ends)
VH: B1 VH with S35V, G55R
VL: B1 VL with S30A
B12: AHF17609 (Fab, V domains shown, not shown: small tags and cut ends)
VH: B1 VH with S35V, G55R
VL: B1 VL with S30A, N53I
B13: AHF17608 (Fab, V domains shown, not shown: small tags and cut ends)
VH: B1 VH with S35V, G55R
VL: B1 VL with S30A, N53V
B14: AHF17605 (Fab, V domains shown, not shown: small tags and cut ends)
VH: B1 VH with S35V, S97Q
VL: B1 VL with S30A, N53I
notes: as for B10
B15: AHF17596 (Fab, V domains shown, not shown: small tags and cut ends)
VH: B1 VH with S35V, G55R
VL: B1 VL with S30A, N53V
B16: AHF17600 (Fab, V domains shown, not shown: small tags and cut ends)
VH: B1 VH with S35V, G55R
VL: B1 VL with N53V
B17: AHF17599 (Fab, V domains shown, not shown: small tags and cut ends)
VH: B1 VH with S35V, G55R
VL: B1 VL with S30A, N53V
B18: AHF17591 (Fab, V domains shown, not shown: small tags and cut ends)
VH: B1 VH with S35V, G55R, F112E
VL: B1 VL with S30A, N53I
B19: AHF17594 (Fab, V domains shown, not shown: small tags and cut ends)
VH: B1 VH with S35V
VL: B1 VL with S30A, N53V
B20: AHF17595 (Fab, V domains shown, not shown: small tags and cut ends)
VH: B1 VH with S35V, G55R, F112E
VL: B1 VL with S30Q
B21: AHF17597 (Fab, V domains shown, not shown: small tags and cut ends)
VH: B1 VH with S35V, G55R
VL: B1 VL with S30Q, N53I
B22: AHF17603 (Fab, V domains shown, not shown: small tags and cut ends)
VH: B1 VH with S35V, F112E
VL: B1 VL with S30A, N53I
B23: AHF17610 (Fab, V domains shown, not shown: small tags and cut ends)
VH: B1 VH with S35V, G55R
VL: B1 VL with S30A
B24: AHF17592 (Fab, V domains shown, not shown: small tags and cut ends)
VH: B1 VH with S35V, G55R
VL: B1 VL with N53V
B25: AHF17601 (Fab, V domains shown, not shown: small tags and cut ends)
VH: B1 VH with S35V, G55R, S97Q, F112E
VL: B1 VL with S30A
B26: AHF17607 (Fab, V domains shown, not shown: small tags and cut ends)
VH: B1 VH with S35V, G55R, F112E
VL: B1 VL with N53I
B27: AHF17604 (Fab, V domains shown, not shown: small tags and cut ends)
VH: B1 VH with S35V, G55R, S97Q
VL: B1 VL with S30Q, N53I
notes: as for B10
B28: AHF17598 (Fab, V domains shown, not shown: small tags and cut ends)
VH: B1 VH with S35V, G55R, F112E
VL: B1 VL with S30A, N53I
B29: felinized clone 101 (antibody, V domains shown)
VH: B1 VH
VL: EIQMTQSPTSLSASVGDRVTITCRASEGISNNLSWYQQTPGKAPKLLIYATSNLHSGVPSRFSGSGSGTDFTLTISSLQPEDFATYYCQQGYKWPLTFGGGTKLEIT
B30: SC-184_76 (antibody, IgG1a, V domains shown)
VH: B1 VH with S32D, I51L, Y52W, D102E
VL: B29 VL with S30A, Y92F
B31: AHF17602 (antibody, V domains shown)
VH: B1 VH with S35V, G55R
VL: B29 VL with S30A
notes: also called AIF17602

molecular target: T1, canine NGF tagged at the C-terminus with the Flag tag (canine, UniProt A0A8I3PYI3 122-241); assay: SPR off-rate screen, Fab-SASA on BSA chip
T1 construct: mature; Expressed with baculovirus technology; also called feline NGF (processed form identical)
T1 sequence (A0A8I3PYI3 entry or part of it): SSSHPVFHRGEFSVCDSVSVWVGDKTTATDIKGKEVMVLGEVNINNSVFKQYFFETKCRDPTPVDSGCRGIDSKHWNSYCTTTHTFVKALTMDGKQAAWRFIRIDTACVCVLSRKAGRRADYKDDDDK

Binder | Kd | Ratio WT-kd/clone-kd | koff | kon
B1 | 2.62 nM and 2.65 nM and 2.69 nM | 1 | 0.000939 s⁻¹ and 0.000943 s⁻¹ and 0.000947 s⁻¹ | 359000 M⁻¹ s⁻¹ and 355000 M⁻¹ s⁻¹ and 351000 M⁻¹ s⁻¹
B2 | 1.8 nM | 1.68 | 0.000561 s⁻¹ | 312000 M⁻¹ s⁻¹
B3 | 1.47 nM | 1.68 | 0.000562 s⁻¹ | 381000 M⁻¹ s⁻¹
B4 | 1.46 nM | 2.01 | 0.000469 s⁻¹ | 321000 M⁻¹ s⁻¹
B5 | 1.76 nM | 1.65 | 0.000573 s⁻¹ | 325000 M⁻¹ s⁻¹
B6 | 2.38 nM | 1.38 | 0.000683 s⁻¹ | 287000 M⁻¹ s⁻¹
B7 | 1.5 nM | 1.45 | 0.000651 s⁻¹ | 434000 M⁻¹ s⁻¹
B8 | 1.62 nM | 1.9 | 0.000496 s⁻¹ | 307000 M⁻¹ s⁻¹

molecular target: T1, canine NGF tagged at the C-terminus …; assay: SPR off-rate assay, Fab-SASA on BSA chip

Binder | Kd | Ratio (KD) WT/clones | koff | kon | Ratio (kd) WT/clones
B1 | 3.15 nM and 3.78 nM and 3.47 nM | 0 | 0.00179 s⁻¹ and 0.00158 s⁻¹ and 0.00169 s⁻¹ | 569000 M⁻¹ s⁻¹ and 419000 M⁻¹ s⁻¹ and 494000 M⁻¹ s⁻¹ | –
B9 | 0.107 nM | 32.3 | 2.01e-05 s⁻¹ | 187000 M⁻¹ s⁻¹ | 83.8
B10 | ≤ 0.00613 nM | 563 | ≤ 1e-06 s⁻¹ | 163000 M⁻¹ s⁻¹ | 1680
B11 | ≤ 0.00476 nM | 726 | ≤ 1e-06 s⁻¹ | 210000 M⁻¹ s⁻¹ | 1680
B12 | ≤ 0.00439 nM | 788 | ≤ 1e-06 s⁻¹ | 228000 M⁻¹ s⁻¹ | 1680
B13 | ≤ 0.00439 nM | 788 | ≤ 1e-06 s⁻¹ | 228000 M⁻¹ s⁻¹ | 1680
B14 | 0.82 nM | 4.21 | 0.000207 s⁻¹ | 253000 M⁻¹ s⁻¹ | 8.14
B15 | 0.0802 nM | 43.1 | 1.82e-05 s⁻¹ | 227000 M⁻¹ s⁻¹ | 92.6
B16 | 0.329 nM | 10.5 | 5.81e-05 s⁻¹ | 177000 M⁻¹ s⁻¹ | 29
B17 | ≤ 0.00472 nM | 732 | ≤ 1e-06 s⁻¹ | 212000 M⁻¹ s⁻¹ | 1680
B18 | ≤ 0.00373 nM | 926 | ≤ 1e-06 s⁻¹ | 268000 M⁻¹ s⁻¹ | 1680
B19 | 0.931 nM | 3.71 | 0.000328 s⁻¹ | 353000 M⁻¹ s⁻¹ | 5.14
B20 | ≤ 0.00562 nM | 615 | ≤ 1e-06 s⁻¹ | 178000 M⁻¹ s⁻¹ | 1680
B21 | 0.0544 nM | 63.5 | 1.08e-05 s⁻¹ | 199000 M⁻¹ s⁻¹ | 156
B22 | 0.664 nM | 5.2 | 0.000245 s⁻¹ | 368000 M⁻¹ s⁻¹ | 6.88
B23 | ≤ 0.00549 nM | 629 | ≤ 1e-06 s⁻¹ | 182000 M⁻¹ s⁻¹ | 1680
B24 | 0.0761 nM | 45.4 | 1.46e-05 s⁻¹ | 192000 M⁻¹ s⁻¹ | 115
B25 | ≤ 0.00344 nM | 1010 | ≤ 1e-06 s⁻¹ | 291000 M⁻¹ s⁻¹ | 1680
B26 | ≤ 0.00442 nM | 781 | ≤ 1e-06 s⁻¹ | 226000 M⁻¹ s⁻¹ | 1680
B27 | 0.321 nM | 10.8 | 4.66e-05 s⁻¹ | 145000 M⁻¹ s⁻¹ | 36.2
B28 | 0.179 nM | 19.3 | 5.25e-05 s⁻¹ | 294000 M⁻¹ s⁻¹ | 32.1

molecular target: T2, canine NGF tagged at the C-terminus with the Flag tag (canine, UniProt A0A8I3PYI3 122-241); assay: SPR, Biacore T200; antibody captured on anti-feline CM5 chip, NGF as analyte; 1:1 model
T2 construct: mature; 'mature' rests on the words 'processed form'; also called feline NGF (processed form identical)
T2 sequence (A0A8I3PYI3 entry or part of it): as above

Binder | Kd | koff | kon
B29 | 1.75 nM | 0.00138 s⁻¹ | 784000 M⁻¹ s⁻¹
B30 | 0.472 nM | 0.000396 s⁻¹ | 838000 M⁻¹ s⁻¹
B31 | 0.161 nM | 6.32e-05 s⁻¹ | 394000 M⁻¹ s⁻¹
